# Measurements from PMC2671166, “Site Directed Mutagenesis of Amino Acid Residues at the Active Site of Mouse Aldehyde Oxidase AOX1” (PLoS ONE, 2009).
# B1: Mouse aldehyde oxidase AOX1 (recombinant, wild-type) (enzyme, UniProt O54754 1-1333, looked up)
# chain: MDPIQLLFYVNGQKVVEKNVDPEMMLLPYLRKNLRLTGTKYGCGGGGCGACTVMISRYNPSTKAIRHHPVNACLTPICSLHGTAVTTVEGLGNTRTRLHPIQERIAKCHGTQCGFCTPGMVMSMYALLRNHPEPTLDQLTDALGGNLCRCTGYRPIIDACKTFCKASACCQSKENGVCCLDQEINGLAESQEEDKTSPELFSEEEFLPLDPTQELIFPPELMRIAEKQPPKTRVFYGERVTWISPVTLKELVEAKFKYPQAPIVMGYTSVGPEVKFKGVFHPIIISPDRIEELGVISQARDGLTLGAGLSLDQVKDILADIVQKLPEEKTQTYRALLKHLRTLAGSQIRNMASLGGHIVSRHLDSDLNPLLAVGNCTLNLLSKDGERRIPLSEEFLRKCPEADLKPQEVLVSVNIPWSRKWEFVSAFRQAQRQQNALAIVNSGMRVLFREGGGVIEELSILYGGVGSTIISAKNSCQRLIGRPWNEGMLDTRCRLVLDEVTLAASAPGGKVEFKRTLIISFLFKFYLEVSQGLKREDPGHSPSLAGNHESALDDLHSKHPWRTLTHQNVDPAQLPQDPIGRPIMHLSGIKHATGEAIYCDDMPAVDRELFLTFVTSSRAHAKIVSIDLSEALSLPGVVDIITADHLQEANTFGTETFLATDEVHCVGHLVCAVIADSETRAKQAAKQVKVVYQDLAPLILTIEEAIQHKSFFKSERKLECGNVDEAFKIVDQILEGEIHIGGQEHFYMETQSMLVVPKGEDGEIDIYVSTQFPKYIQDIVAATLKLSANKVMCHVRRVGGAFGGKVGKTSILAAITAFAASKHGRAVRCILERGEDMLITGGRHPYLGKYKAGFMNEGRILALDVEHYCNGGCSLDESLWVIEMGLLKLDNAYKFPNLRCRGWACRTNLPSNTALRGFGFPQAGLVTEACITEVAIKCGLSPEQVRTINMYKHVDTTHYKQEFSAKALSECWRECMAKCSYFERKAAIGKFNAENSWKKRGMAVIPLKFPVGIGSVAMGQAAALVHIYLDGSALVSHGGIEMGQGVHTKMIQVVSRELRMPMSSVHLRGTSTETVPNTNASGGSVVADLNGLAVKDACQTLLKRLEPIISKNPQGTWKDWAQTAFDQSISLSAVGYFRGYESNIDWEKGEGHPFEYFVFGAACSEVEINCLTGDHKNIRTNIVMDVGHSINPALDIGQVEGAFIQGMGLYTIEELSYSPQGTLYSRGPNQYKIPAICDIPTEMHISFLPPSEHSNTLYSSKGLGESGVFLGCSVFFAIHDAVKAARQERGISGPWKLNSPLTPEKIRMACEDKFTKMIPRDEPGSYVPCNIPV
# notes: mouse aldehyde oxidase AOX1, cDNA cloned from mouse CD1 liver into the NdeI-SalI sites of pTrcHis (plasmid pSL205); band of 150 kDa on SDS-PAGE; Holds Moco, two [2Fe-2S] clusters and FAD as cofactors; also called mAOX1; mAOX1-WT; source: E. coli TP1000, coexpressed with mMCSF, purified (Ni-NTA, Superose 12, benzamidine sepharose)
# Biological target: the molecule itself
# Experiment: SEC; purified mAOX1; single peak with an approximate molecular mass of 300 kDa; data not shown
protein,measurement,value
B1,stoichiometry N,2
